Data on 2 molecules can be found in PMC5397183.

Like-named read-outs stand apart in the source and are kept apart here.

The target of data set [1] is Bacillus halodurans FadR (native) (Bacillus halodurans). Kind of data set: crystal structure.
Data set [2] shares this target. Kind of data set: crystal structure. This is another data set of the same source.
For data set [3], the target named is T1, FadR WT (native, crystal) (Bacillus halodurans, UniProt Q9K8A4 1-195).
T1 sequence: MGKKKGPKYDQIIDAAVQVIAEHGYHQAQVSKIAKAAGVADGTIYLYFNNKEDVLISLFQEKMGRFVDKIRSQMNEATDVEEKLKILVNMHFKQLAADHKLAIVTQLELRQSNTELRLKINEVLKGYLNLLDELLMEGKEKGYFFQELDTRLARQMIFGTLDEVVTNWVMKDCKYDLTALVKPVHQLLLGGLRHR
In words: X-ray crystallography.

One may read the stoichiometry N as a count of units in the complex or per binding partner. For the molecule “Bacillus halodurans FadR (native) (natural protein)”, the stoichiometry N in data set [1] and in data set [2] was 2 each time.

B1: 21OH fadR promoter (dsDNA)
DNA 1: GATGAATGAATACTCATTCAT
DNA 2: CATGAATGAGTATTCATTCAT
B1: the binding result in data set [3] is on record as “binds”.
